± gives the uncertainty stated by the source.
B1: Homeobox protein cut-like 1, residues 941 to 1008; numbered along this chain, P39880 (parent)
chain: QEVDTIELTRQVKEKLAKNGICQRIFGEKVLGLSQGSVSDMLSRPKPWSKLTQKGREPFIRMQLWLNG

Variants of: B1
Test: abundance fitness (aPCA) (normalised: wild type 0, dead -1); higher = more abundant; growth selection in yeast, the domain comes from the species named
Details: Homo sapiens

Row | Variant | abundance fitness
1 | QEVDTIELTRQVKEKLAKNGICQRIFGELVLGLSQGSVSDMLSRPKPWSKLTQKGREPFIRMQLWLNG [K29L] | -0.516 ± 0.051
2 | QEVDTIELTRQVKEKLAKNGICQRIFGEMVLGLSQGSVSDMLSRPKPWSKLTQKGREPFIRMQLWLNG [K29M] | -0.254 ± 0.078
3 | QEVDTIELTRQVKEKLAKNGICQRIFGENVLGLSQGSVSDMLSRPKPWSKLTQKGREPFIRMQLWLNG [K29N] | 0.365 ± 0.15
4 | QEVDTIELTRQVKEKLAKNGICQRIFGEPVLGLSQGSVSDMLSRPKPWSKLTQKGREPFIRMQLWLNG [K29P] | -0.431 ± 0.071
5 | QEVDTIELTRQVKEKLAKNGICQRIFGERVLGLSQGSVSDMLSRPKPWSKLTQKGREPFIRMQLWLNG [K29R] | -0.05 ± 0.049
6 | QEVDTIELTRQVKEKLAKNGICQRIFGESVLGLSQGSVSDMLSRPKPWSKLTQKGREPFIRMQLWLNG [K29S] | -0.12 ± 0.051
7 | QEVDTIELTRQVKEKLAKNGICQRIFGETVLGLSQGSVSDMLSRPKPWSKLTQKGREPFIRMQLWLNG [K29T] | 0.027 ± 0.068
8 | QEVDTIELTRQVKEKLAKNGICQRIFGEVVLGLSQGSVSDMLSRPKPWSKLTQKGREPFIRMQLWLNG [K29V] | -0.195 ± 0.061
9 | QEVDTIELTRQVKEKLAKNGICQRIFGEWVLGLSQGSVSDMLSRPKPWSKLTQKGREPFIRMQLWLNG [K29W] | -0.273 ± 0.072
10 | QEVDTIELTRQVKEKLAKNGICQRIFGEYVLGLSQGSVSDMLSRPKPWSKLTQKGREPFIRMQLWLNG [K29Y] | -0.492 ± 0.095
11 | QEVDTIELTRQVKEKLAKNGICQRIFGEKALGLSQGSVSDMLSRPKPWSKLTQKGREPFIRMQLWLNG [V30A] | -0.253 ± 0.26
12 | QEVDTIELTRQVKEKLAKNGICQRIFGEKFLGLSQGSVSDMLSRPKPWSKLTQKGREPFIRMQLWLNG [V30F] | -0.657 ± 0.29
13 | QEVDTIELTRQVKEKLAKNGICQRIFGEKGLGLSQGSVSDMLSRPKPWSKLTQKGREPFIRMQLWLNG [V30G] | 0.111 ± 0.43
14 | QEVDTIELTRQVKEKLAKNGICQRIFGEKLLGLSQGSVSDMLSRPKPWSKLTQKGREPFIRMQLWLNG [V30L] | -0.416 ± 0.49
15 | QEVDTIELTRQVKEKLAKNGICQRIFGEKPLGLSQGSVSDMLSRPKPWSKLTQKGREPFIRMQLWLNG [V30P] | 0.123 ± 0.4
16 | QEVDTIELTRQVKEKLAKNGICQRIFGEKYLGLSQGSVSDMLSRPKPWSKLTQKGREPFIRMQLWLNG [V30Y] | -0.038 ± 0.25
17 | QEVDTIELTRQVKEKLAKNGICQRIFGEKVAGLSQGSVSDMLSRPKPWSKLTQKGREPFIRMQLWLNG [L31A] | -0.273 ± 0.051
18 | QEVDTIELTRQVKEKLAKNGICQRIFGEKVCGLSQGSVSDMLSRPKPWSKLTQKGREPFIRMQLWLNG [L31C] | -0.255 ± 0.098
19 | QEVDTIELTRQVKEKLAKNGICQRIFGEKVDGLSQGSVSDMLSRPKPWSKLTQKGREPFIRMQLWLNG [L31D] | -0.425 ± 0.086
20 | QEVDTIELTRQVKEKLAKNGICQRIFGEKVEGLSQGSVSDMLSRPKPWSKLTQKGREPFIRMQLWLNG [L31E] | -0.486 ± 0.067

Row | Variant | abundance fitness
21 | QEVDTIELTRQVKEKLAKNGICQRIFGEKVFGLSQGSVSDMLSRPKPWSKLTQKGREPFIRMQLWLNG [L31F] | -0.11 ± 0.091
22 | QEVDTIELTRQVKEKLAKNGICQRIFGEKVGGLSQGSVSDMLSRPKPWSKLTQKGREPFIRMQLWLNG [L31G] | -0.256 ± 0.057
23 | QEVDTIELTRQVKEKLAKNGICQRIFGEKVHGLSQGSVSDMLSRPKPWSKLTQKGREPFIRMQLWLNG [L31H] | -0.313 ± 0.1
24 | QEVDTIELTRQVKEKLAKNGICQRIFGEKVIGLSQGSVSDMLSRPKPWSKLTQKGREPFIRMQLWLNG [L31I] | -0.278 ± 0.078
25 | QEVDTIELTRQVKEKLAKNGICQRIFGEKVKGLSQGSVSDMLSRPKPWSKLTQKGREPFIRMQLWLNG [L31K] | -0.233 ± 0.065
26 | QEVDTIELTRQVKEKLAKNGICQRIFGEKVMGLSQGSVSDMLSRPKPWSKLTQKGREPFIRMQLWLNG [L31M] | -0.191 ± 0.068
27 | QEVDTIELTRQVKEKLAKNGICQRIFGEKVNGLSQGSVSDMLSRPKPWSKLTQKGREPFIRMQLWLNG [L31N] | -0.319 ± 0.098
28 | QEVDTIELTRQVKEKLAKNGICQRIFGEKVPGLSQGSVSDMLSRPKPWSKLTQKGREPFIRMQLWLNG [L31P] | -0.233 ± 0.073
29 | QEVDTIELTRQVKEKLAKNGICQRIFGEKVRGLSQGSVSDMLSRPKPWSKLTQKGREPFIRMQLWLNG [L31R] | -0.15 ± 0.052
30 | QEVDTIELTRQVKEKLAKNGICQRIFGEKVTGLSQGSVSDMLSRPKPWSKLTQKGREPFIRMQLWLNG [L31T] | -0.393 ± 0.063
31 | QEVDTIELTRQVKEKLAKNGICQRIFGEKVVGLSQGSVSDMLSRPKPWSKLTQKGREPFIRMQLWLNG [L31V] | -0.242 ± 0.049
32 | QEVDTIELTRQVKEKLAKNGICQRIFGEKVWGLSQGSVSDMLSRPKPWSKLTQKGREPFIRMQLWLNG [L31W] | -0.138 ± 0.063
33 | QEVDTIELTRQVKEKLAKNGICQRIFGEKVYGLSQGSVSDMLSRPKPWSKLTQKGREPFIRMQLWLNG [L31Y] | -0.351 ± 0.1
34 | QEVDTIELTRQVKEKLAKNGICQRIFGEKVLALSQGSVSDMLSRPKPWSKLTQKGREPFIRMQLWLNG [G32A] | -0.096 ± 0.067
35 | QEVDTIELTRQVKEKLAKNGICQRIFGEKVLCLSQGSVSDMLSRPKPWSKLTQKGREPFIRMQLWLNG [G32C] | -0.266 ± 0.076
36 | QEVDTIELTRQVKEKLAKNGICQRIFGEKVLDLSQGSVSDMLSRPKPWSKLTQKGREPFIRMQLWLNG [G32D] | -0.311 ± 0.076
37 | QEVDTIELTRQVKEKLAKNGICQRIFGEKVLELSQGSVSDMLSRPKPWSKLTQKGREPFIRMQLWLNG [G32E] | -0.411 ± 0.11
38 | QEVDTIELTRQVKEKLAKNGICQRIFGEKVLFLSQGSVSDMLSRPKPWSKLTQKGREPFIRMQLWLNG [G32F] | -0.313 ± 0.079
39 | QEVDTIELTRQVKEKLAKNGICQRIFGEKVLHLSQGSVSDMLSRPKPWSKLTQKGREPFIRMQLWLNG [G32H] | -0.096 ± 0.096

From the Human Domainome abundance scans (Beltran et al. 2025)
